Assay results as given in IntAct's records for PubMed 15358143.

These substances were tested against ppia_human PPIA (UniProt P62937).
Chain of ppia_human PPIA (P62937 whole entry, looked up): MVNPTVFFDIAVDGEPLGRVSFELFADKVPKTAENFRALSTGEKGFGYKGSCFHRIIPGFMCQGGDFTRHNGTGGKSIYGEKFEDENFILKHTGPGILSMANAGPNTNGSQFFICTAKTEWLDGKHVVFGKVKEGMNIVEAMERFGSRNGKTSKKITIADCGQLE

Substance	effect of a mutation on the interaction
Nucleoprotein (Human SARS coronavirus), P59595 Q307D	decreasing interaction strength
Nucleoprotein (Human SARS coronavirus), P59595 W302A	decreasing interaction strength
Nucleoprotein (Human SARS coronavirus), P59595 Q307A	decreasing interaction strength
Nucleoprotein (Human SARS coronavirus), P59595 I305A	decreasing interaction strength
